Data taken from patent US20230250154A1 (CYTONICS, published 2023).

T1: ADAMTS5 (human, UniProt Q9UNA0 262-622, limits assumed)
T1 sequence (looked up): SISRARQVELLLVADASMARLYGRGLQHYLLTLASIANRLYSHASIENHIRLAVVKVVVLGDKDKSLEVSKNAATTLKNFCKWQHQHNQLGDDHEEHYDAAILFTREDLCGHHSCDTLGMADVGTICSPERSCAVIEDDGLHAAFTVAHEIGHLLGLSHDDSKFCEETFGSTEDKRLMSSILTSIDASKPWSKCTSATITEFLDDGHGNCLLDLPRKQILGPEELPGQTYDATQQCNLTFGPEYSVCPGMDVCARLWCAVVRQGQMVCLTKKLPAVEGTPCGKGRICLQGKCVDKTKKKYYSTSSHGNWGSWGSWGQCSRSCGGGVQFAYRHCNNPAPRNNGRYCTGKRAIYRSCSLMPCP

T2: ADAMTS4 (human, UniProt O75173 213-685, limits assumed)
T2 sequence (looked up): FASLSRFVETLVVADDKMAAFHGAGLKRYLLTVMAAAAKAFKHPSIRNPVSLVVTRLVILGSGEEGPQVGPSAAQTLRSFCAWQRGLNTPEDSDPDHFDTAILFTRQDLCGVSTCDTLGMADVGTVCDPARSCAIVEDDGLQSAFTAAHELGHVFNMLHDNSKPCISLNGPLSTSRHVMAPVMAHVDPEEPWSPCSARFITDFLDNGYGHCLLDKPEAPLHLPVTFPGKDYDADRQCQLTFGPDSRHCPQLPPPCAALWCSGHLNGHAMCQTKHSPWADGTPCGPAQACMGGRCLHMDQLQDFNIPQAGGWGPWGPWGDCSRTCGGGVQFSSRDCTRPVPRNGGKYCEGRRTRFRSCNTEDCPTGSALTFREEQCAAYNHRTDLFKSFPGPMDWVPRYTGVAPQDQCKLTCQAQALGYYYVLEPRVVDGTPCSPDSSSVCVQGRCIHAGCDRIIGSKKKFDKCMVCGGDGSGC


Columns and labels:
Experiment in all cases: cell-based or functional assay
[1] = target: T1, ADAMTS5
[2] = target: MMP13 (human, UniProt P45452 104-471, limits assumed)
[3] = target: T2, ADAMTS4

Protease Inhibition (% of WT) [1] | Protease Inhibition (% of WT) [2] | Protease Inhibition (% of WT) [3] | Binder
208 % of WT | 51 % of WT | 101 % of WT | Variant A2M, bait region SEQ ID NO 110 (other) SVSGKPQYMVLVPSLLHTETTEKGCVLLSYLNETVTVSASLESVRGNRSLFTDLEAENDVLHCVAFAVPKSSSNEEVMFLTVQVKGPTQEFKKRTTVMVKNEDSLVFVQTDKSIYKPGQTVKFRVVSMDENFHPLNELIPLVYIQDPKGNRIAQWQSFQLEGGLKQFSFPLSSEPFQGSYKVVVQKKSGGRTEHPFTVEEFVLPKFEVQVTVPKIITILEEEMNVSVCGLYTYGKPVPGHVTVSICRKYSDASDCHGEDSQAFCEKFSGQLNSHGCFYQQVKTKVFQLKRKEYEMKLHTEAQIQEEGTVVELTGRQSSEITRTITKLSFVKVDSHFRQGIPFFGQVRLVDGKGVPIPNKVIFIRGNEANYYSNATTDEHGLVQFSINTTNVMGTSLTVRVNYKDRSPCYGYQWVSEEHEEAHHTAYLVFSPSKSFVHLEPMSHELPCGHTQTVQAHYILNGGTLLGLKKLSFYYLIMAKGGIVRTGTHGLLVKQEDMKGHFSISIPVKSDIAPVARLLIYAVLPTGDVIGDSAKYDVENCLANKVDLSFSPSQSLPASHAHLRVTAAPQSVCALRAVDQSVLLMKPDAELSASSVYNLLPEKDLTGFPGPLNDQDDEDCINRHNVYINGITYTPVSSTNEKDMYSFLEDMGLKAFTNSKIRKPKMCPQLETEGRGEREAQGEFPEVEGEEEGGGPEKETGGEREAQGKLRKYFPETWIWDLVVVNSAGVAEVGVTVPDTITEWKAGAFCLSEDAGLGISSTASLRAFQPFFVELTMPYSVIRGEAFTLKATVLNYLPKCIRVSVQLEASPAFLAVPVEKEQAPHCICANGRQTVSWAVTPKSLGNVNFTVSAEALESQELCGTEVPSVPEHGRKDTVIKPLLVEPEGLEKETTFNSLLCPSGGEVSEELSLKLPPNVVEESARASVSVLGDILGSAMQNTQNLLQMPYGCGEQNMVLFAPNIYVLDYLNETQQLTPEIKSKAIGYLNTGYQRQLNYKHYDGSYSTFGERYGRNQGNTWLTAFVLKTFAQARAYIFIDEAHITQALIWLSQRQKDNGCFRSSGSLLNNAIKGGVEDEVTLSAYITIALLEIPLTVTHPVVRNALFCLESAWKTAQEGDHGSHVYTKALLAYAFALAGNQDKRKEVLKSLNEEAVKKDNSVHWERPQKPKAPVGHFYEPQAPSAEVEMTSYVLLAYLTAQPAPTSEDLTSATNIVKWITKQQNAQGGFSSTQDTVVALHALSKYGAATFTRTGKAAQVTIQSSGTFSSKFQVDNNNRLLLQQVSLPELPGEYSMKVTGEGCVYLQTSLKYNILPEKEEFPFALGVQTLPQTCDEPKAHTSFQISLSVSYTGSRSASNMAIVDVKMVSGFIPLKPTVKMLERSNHVSRTEVSSNHVLIYLDKVSNQTLSLFFTVLQDVPVRDLKPAIVKVYDYYETDEFAIAEYNAPCSKDLGNADYKDDDDKGASHHHHHH
105 % of WT | 122 % of WT | 112 % of WT | Variant A2M, bait region SEQ ID NO 109 (other) SVSGKPQYMVLVPSLLHTETTEKGCVLLSYLNETVTVSASLESVRGNRSLFTDLEAENDVLHCVAFAVPKSSSNEEVMFLTVQVKGPTQEFKKRTTVMVKNEDSLVFVQTDKSIYKPGQTVKFRVVSMDENFHPLNELIPLVYIQDPKGNRIAQWQSFQLEGGLKQFSFPLSSEPFQGSYKVVVQKKSGGRTEHPFTVEEFVLPKFEVQVTVPKIITILEEEMNVSVCGLYTYGKPVPGHVTVSICRKYSDASDCHGEDSQAFCEKFSGQLNSHGCFYQQVKTKVFQLKRKEYEMKLHTEAQIQEEGTVVELTGRQSSEITRTITKLSFVKVDSHFRQGIPFFGQVRLVDGKGVPIPNKVIFIRGNEANYYSNATTDEHGLVQFSINTTNVMGTSLTVRVNYKDRSPCYGYQWVSEEHEEAHHTAYLVFSPSKSFVHLEPMSHELPCGHTQTVQAHYILNGGTLLGLKKLSFYYLIMAKGGIVRTGTHGLLVKQEDMKGHFSISIPVKSDIAPVARLLIYAVLPTGDVIGDSAKYDVENCLANKVDLSFSPSQSLPASHAHLRVTAAPQSVCALRAVDQSVLLMKPDAELSASSVYNLLPEKDLTGFPGPLNDQDDEDCINRHNVYINGITYTPVSSTNEKDMYSFLEDMGLKAFTNSKIRKPKMCPQLEPAGAARGESESEGGFFGFPIGERESTGGDRGLPIGENEAGGKLRKYFPETWIWDLVVVNSAGVAEVGVTVPDTITEWKAGAFCLSEDAGLGISSTASLRAFQPFFVELTMPYSVIRGEAFTLKATVLNYLPKCIRVSVQLEASPAFLAVPVEKEQAPHCICANGRQTVSWAVTPKSLGNVNFTVSAEALESQELCGTEVPSVPEHGRKDTVIKPLLVEPEGLEKETTFNSLLCPSGGEVSEELSLKLPPNVVEESARASVSVLGDILGSAMQNTQNLLQMPYGCGEQNMVLFAPNIYVLDYLNETQQLTPEIKSKAIGYLNTGYQRQLNYKHYDGSYSTFGERYGRNQGNTWLTAFVLKTFAQARAYIFIDEAHITQALIWLSQRQKDNGCFRSSGSLLNNAIKGGVEDEVTLSAYITIALLEIPLTVTHPVVRNALFCLESAWKTAQEGDHGSHVYTKALLAYAFALAGNQDKRKEVLKSLNEEAVKKDNSVHWERPQKPKAPVGHFYEPQAPSAEVEMTSYVLLAYLTAQPAPTSEDLTSATNIVKWITKQQNAQGGFSSTQDTVVALHALSKYGAATFTRTGKAAQVTIQSSGTFSSKFQVDNNNRLLLQQVSLPELPGEYSMKVTGEGCVYLQTSLKYNILPEKEEFPFALGVQTLPQTCDEPKAHTSFQISLSVSYTGSRSASNMAIVDVKMVSGFIPLKPTVKMLERSNHVSRTEVSSNHVLIYLDKVSNQTLSLFFTVLQDVPVRDLKPAIVKVYDYYETDEFAIAEYNAPCSKDLGNADYKDDDDKGASHHHHHH
108 % of WT | 136 % of WT | 92 % of WT | Variant A2M, bait region SEQ ID NO 107 (other) SVSGKPQYMVLVPSLLHTETTEKGCVLLSYLNETVTVSASLESVRGNRSLFTDLEAENDVLHCVAFAVPKSSSNEEVMFLTVQVKGPTQEFKKRTTVMVKNEDSLVFVQTDKSIYKPGQTVKFRVVSMDENFHPLNELIPLVYIQDPKGNRIAQWQSFQLEGGLKQFSFPLSSEPFQGSYKVVVQKKSGGRTEHPFTVEEFVLPKFEVQVTVPKIITILEEEMNVSVCGLYTYGKPVPGHVTVSICRKYSDASDCHGEDSQAFCEKFSGQLNSHGCFYQQVKTKVFQLKRKEYEMKLHTEAQIQEEGTVVELTGRQSSEITRTITKLSFVKVDSHFRQGIPFFGQVRLVDGKGVPIPNKVIFIRGNEANYYSNATTDEHGLVQFSINTTNVMGTSLTVRVNYKDRSPCYGYQWVSEEHEEAHHTAYLVFSPSKSFVHLEPMSHELPCGHTQTVQAHYILNGGTLLGLKKLSFYYLIMAKGGIVRTGTHGLLVKQEDMKGHFSISIPVKSDIAPVARLLIYAVLPTGDVIGDSAKYDVENCLANKVDLSFSPSQSLPASHAHLRVTAAPQSVCALRAVDQSVLLMKPDAELSASSVYNLLPEKDLTGFPGPLNDQDDEDCINRHNVYINGITYTPVSSTNEKDMYSFLEDMGLKAFTNSKIRKPKMCPQLEQYEMHGPEGLRVGIPENFFGVTSEDLVVQEAIPMSIPKLRKYFPETWIWDLVVVNSAGVAEVGVTVPDTITEWKAGAFCLSEDAGLGISSTASLRAFQPFFVELTMPYSVIRGEAFTLKATVLNYLPKCIRVSVQLEASPAFLAVPVEKEQAPHCICANGRQTVSWAVTPKSLGNVNFTVSAEALESQELCGTEVPSVPEHGRKDTVIKPLLVEPEGLEKETTFNSLLCPSGGEVSEELSLKLPPNVVEESARASVSVLGDILGSAMQNTQNLLQMPYGCGEQNMVLFAPNIYVLDYLNETQQLTPEIKSKAIGYLNTGYQRQLNYKHYDGSYSTFGERYGRNQGNTWLTAFVLKTFAQARAYIFIDEAHITQALIWLSQRQKDNGCFRSSGSLLNNAIKGGVEDEVTLSAYITIALLEIPLTVTHPVVRNALFCLESAWKTAQEGDHGSHVYTKALLAYAFALAGNQDKRKEVLKSLNEEAVKKDNSVHWERPQKPKAPVGHFYEPQAPSAEVEMTSYVLLAYLTAQPAPTSEDLTSATNIVKWITKQQNAQGGFSSTQDTVVALHALSKYGAATFTRTGKAAQVTIQSSGTFSSKFQVDNNNRLLLQQVSLPELPGEYSMKVTGEGCVYLQTSLKYNILPEKEEFPFALGVQTLPQTCDEPKAHTSFQISLSVSYTGSRSASNMAIVDVKMVSGFIPLKPTVKMLERSNHVSRTEVSSNHVLIYLDKVSNQTLSLFFTVLQDVPVRDLKPAIVKVYDYYETDEFAIAEYNAPCSKDLGNADYKDDDDKGASHHHHHH
